The series in a line: yeast display, Sf9 membrane polyspecificity reagent, FACS + sequencing; frameworks hold sequencing errors. Summed up: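 Galactose-induced (36–48 hours) yeast carrying a synthetic nanobody display library were exposed to 10% biotinylated, detergent-solubilized Sf9 membrane reagent at 4 °C for 1 hour. FACS followed streptavidin microbead enrichment, using low and high (top ~1%) gates for expression (anti-HA) and reagent binding (streptavidin). Colony PCR, MiSeq 2 × 250 sequencing and CDR-length filtering followed. Labels for polyreactivity reflect the gate of origin.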
As to “QVQLVESGGGLVQAGGSLRLNCAASGSIFGQYTMGWYRQAPGKERELVADITSGGSTYYADSVKGRFTISRDNAKNTVYLQMNSLKPEDPAVYYCAAVDWKAHWEMGYWGQGTQVTVSS”, the “polyreactivity (PSR sort gate)” value was “low polyreactivity”.
Consider “QVQLVESGGGLVQAGGSLRLNCAASGSILYLNAMGWYRQAPGKERELLAAITWSGGSTSYADSVKGRFTISRDYAKNTVSLQMNSLKPEDTAVYYCSAVRRGYGGVYYAGGYWGQGTQVTVSW”, for which the “polyreactivity (PSR sort gate)” value is recorded as “low polyreactivity”.
Consider “QVQLVESGGGLVQAGGSLRLNCAASGSTFNRNAMGWYRQAPGKERELVATISSGGSTNYADSVKGRFTITRDNAKNTVYLLMISLYPEDTWVYYCAKRSLYRYYYWGQGSQVTVSS”, for which the “polyreactivity (PSR sort gate)” value is “high polyreactivity”.
Consider “QVQLVESGGGLVQAGGSLRLNSAASGIIFPRYAMGWYSQAPGKEWEVVAGFTSSGGTYYADSVKGRFTISRDHAKNTVYLQMNSLIPEDTAVYYCAARQGNLRRGVRWFNYWGQGTQVTVSS”, for which the “polyreactivity (PSR sort gate)” value is “high polyreactivity”.
For “QVQLVESGGGLVQAGGSLRLRCAASGFIFSAYAMGWYSQAPGKERELVAGITKSVGRTTYADSVKGRFTIARDNAKNTVYLQMNSLKPEDTAVYYCNARRSYTYRIFGMDYWGQGTQVTVSS”, the “polyreactivity (PSR sort gate)” value was “high polyreactivity”.
As for “QVQLVESGGGLVQAGGSLRLRCAASGFNFSFDNAMGWYRQAPGKERELVAAISSGTTTHYADSVKGRFTISRDNAKNTVYLQMNSLKPEDTAVYYCAADTAQQSGYEYDYWGQGTQVTVSS”, the “polyreactivity (PSR sort gate)” value is “low polyreactivity”.
Turning to “QVQLVESGGGLVQAGGSLRLRCAASGFNSVRNAMGWYRPAPGKEREFVAAISGGGGSTYYADSVKGRFTISRDNAMNTVYLQMNSLKPEDTAVYYCAPRSYWGQGTQVTVSS”, the “polyreactivity (PSR sort gate)” value is given as “high polyreactivity”.
As to “QVQLVESGGGLVQAGGSLRLRCAASGIIFPYYTMGGYRQAPGKERELVARITNGGRTYYADSVKGRFTISRDNAKNTVYLQMNSLKPEYTAVYYCIAGRYYIGGYWGQGTQVTVSS”, the “polyreactivity (PSR sort gate)” value is listed as “high polyreactivity”.
For the sequence “QVQLVESGGGLVQAGGSLRLRCAASGIIFSPYDMGWSIQAPGKVRELVAAITTGDSTNYADSVKGRFTMSRDNAKTTVYFPMNSLKPEDTAVDYCNATDTYVFFLYLEFDYWGQGTQVTVSS”, the “polyreactivity (PSR sort gate)” value was “low polyreactivity”.
Turning to “QVQLVESGGGLVQAGGSLRLRCAASGIIFTGYALGWYRQAPGKESELVAAISRSGGGTYYADSVKARFTISRDNAKNTVYLQINSLKPEDTAVYYCNRLRIAASYWQAYDYWGQGTQVTLSS”, the “polyreactivity (PSR sort gate)” value is given as “high polyreactivity”.
To “QVQLVESGGGLVQAGGSLRLRCAASGIIQQSYALGWSRQAPGKERELVAAIRGSDGSTYYADSVKGRFTISRDNAKNTVYLQMNSLKPEDTAVYYCNADTRTWPLDYWGQGTQVTVSS” belongs “low polyreactivity”; to “QVQLVESGGGLVQAGGSLRLRCAASGNIFLSYAMGWYRQAPGKERELVAGISASGGRTYYADSVKGRFTISRDNAKNTVYLQMNSLKPEDTAVYYCATRGQTRTTTRYYSWGQGTQVTVSS”, “high polyreactivity”.
Take “QVQLVESGGGLVQAGGSLRLRCAASGRIFARNAMGWYRQAPGKERELVAAISSRGSSTYYADSVKGRFTISRDNAKNTVYLQMNSLKPEDTAVYYCNAYYSVYPPGYDYWGQGTQVTVSS”: the “polyreactivity (PSR sort gate)” value was “high polyreactivity”.
To “QVQLVESGGGLVQAGGSLRLRCAASGRIFDANAMGWYRQAPGKERELVAAITSRGGTTFYADSVKGRFTISRDNEKNTDYLQMNSLKPEDTAVYYCAADRYYFYRRYDYWGQGTQVTVSS” belongs “high polyreactivity”.
In the case of “QVQLVESGGGLVQAGGSLRLRCAASGRIFGRNAMGWYRQAPGKERELVAAISGGGSTNYADSVKGRFTISRDNAKNTVYLQMKSLKPADTAVYYCAVKQGFYSRALKLYYWGQGTQVTVSS”, the “polyreactivity (PSR sort gate)” value was “high polyreactivity”.
Under “QVQLVESGGGLVQAGGSLRLRCAASGRIFLPYAMGWYRQAPGKERELVAGISSRGSTKYADSVKGRFTISRDNAKNTVYLQMNTLKPEETAVYYCNKVKKSDKFNNFSNDYWGQGTQVTVSS” stands “high polyreactivity”; under “QVQLVESGGGLVQAGGSLRLRCAASGRIFRKYAMGWYRQAPGKERELVAAITSGGSTYYADSVKGRFTISRDNAKNTVYLQMNSLKPEDTAVYYCAAFYRGGDYWGQGTQVTVSS”, “high polyreactivity”; under “QVQLVESGGGLVQAGGSLRLRCAASGRIFRPYTMGWYRQAPGKERELVAAITSGSSTNYADSVKGRFTISRDNAKNTVYLQMNSLKPEDTAVYYCAVKVRIFASYYPFYYWGQGTQVTVSS”, “high polyreactivity”.
For “QVQLVESGGGLVQAGGSLRLRCAASGRIFVYNAMGWYRQAPGKERELVAAISRSGSSTYYADSVKGRFTISRDNAKNTVYLQMYSLKPEDTSVYYCAARTFSIAYYKYGYWGQGTHVTVSS”, the “polyreactivity (PSR sort gate)” value is recorded as “high polyreactivity”.
Consider “QVQLVESGGGLVQAGGSLRLRCAASGRTFAVYAMGWYRQAPGKERELVAAITLGASRSYYADSVKGRFTISRDNAKNTVYLHMNSLKPEDTAVYYCNAVGRRNVVSSLNDYWGQGTQVTVSS”, for which the “polyreactivity (PSR sort gate)” value was “low polyreactivity”.
As for “QVQLVESGGGLVQAGGSLRLRCAASGRTFCWYAMGWYRQAPGKERELVADITYSGGNTYYADSVKGRFTITRDNAKNTVYLQMNSLKPEDTAVYYCAAERKNKYDYWGQGTQVTVTS”, the “polyreactivity (PSR sort gate)” value was “high polyreactivity”.
Under “QVQLVESGGGLVQAGGSLRLRCAASGRTFDTYAMGWYRQAPWKERELVASITYRGGSTYYADSVKGRFTISRDNGKNTVYLQLNSLKPVDTAVYYCNAKVKRNKRWRGYWGQGTQVTVSS” stands “high polyreactivity”; under “QVQLVESGGGLVQAGGSLRLRCAASGRTFLTNTLGWYRQAPGKERELVAAISSGGSTKYADSVKGRFTISRDNAKNTVYLQMNSLKTEDTAVYYCAATGWRYGYKYYYWGQGTQVTVSS”, “high polyreactivity”; under “QVQLVESGGGLVQAGGSLRLRCAASGRTFWWNAMGWYRQAPGKERELVAGTYSRGGGTYYADSVKGRFTISRDNAKNRVYLQMNRLKAEDTAVYYCASQAPVYRYYYWGQGTQVTVSS”, “high polyreactivity”.
As for “QVQLVESGGGLVQAGGSLRLRCAASGRTFYYNVMGWYRQAPGKERELVATITSGASTNYADSVKGRFTISRDNAKNTVYLQMNSLKPEDTAVYYCNTEYYPRWYGPYSYYDFDSWGQGTEVTVSS”, the “polyreactivity (PSR sort gate)” value was “low polyreactivity”.
Take “QVQLVESGGGLVQAGGSLRLRCAASGRTLGRYAMGWYRQAPGKDRELVAAIRIGGGSTYYADSVKGRFTISRDNAKNTVYLQMISLKPEDTAVYYCATRGYINGAGFGYWGQGTQVTVSS”: the “polyreactivity (PSR sort gate)” value is reported as “high polyreactivity”.
Turning to “QVQLVESGGGLVQAGGSLRLRCAASGSIFFYYVMGWYRQAPGKEREFVAAITYSGGSTYYADSVKGRFTISRDNAKNTVYFQMNSMQQEDTAVYYCAADYSPSIGGFWFGGRHYGYWGQGTQVTVSS”, the “polyreactivity (PSR sort gate)” value is on record as “low polyreactivity”.
On to “QVQLVESGGGLVQAGGSLRLRCAASGSIFPWYAMGWYRQAPGKERELVAAITISGGSTHYADSVKGRFTISRDNAKNTVYLQMNCLKPEDTAVYYCATPRYPSYDYWGQGTQVTVSS”, for which the “polyreactivity (PSR sort gate)” value is recorded as “low polyreactivity”.
Regarding “QVQLVESGGGLVQAGGSLRLRCAASGSNFNPYAMGWYRQAPGKERELVAAINSRGGSTYYADSVKGRFTISRDNANNTVYLQMNSLKPQDTAVYYCAARTRRRTSAYEYWGQGTQVTVSS”, the “polyreactivity (PSR sort gate)” value is on record as “high polyreactivity”.
“QVQLVESGGGLVQAGGSLRLRCAASGSTFHIYAMGWYRQAPGKERELVAAISKGGGNTYYADSVKGRFTISRDNAKNPVYLQLNSLKPEDTAGYYCAAVPTRYRSYSYTYGGYNYWGQGTQVTVSS”: the “polyreactivity (PSR sort gate)” value is listed as “high polyreactivity”.
To “QVQLVESGGGLVQAGGSLRLRCAASGSTFRNAMGWYRQAPGKERELVAAISYSGGRTYYADSVKGRFTISRDNAKNTVYLQMNSLKPEDTAVYYCASPGVSWSTRSYYYWGQGTQVTVSS” belongs “high polyreactivity”; to “QVQLVESGGGLVQAGGSLRLRCAASGSTFSIYAMGWYRQATGKQRELVAAISSSGGSTYYADSVKGRFTISRDTAKNTGYLQMNSLKPEDTAFYYCNKRKYHVRYDYWGQGTQVTVSS”, “low polyreactivity”; to “QVQLVESGGGLVQAGGSLRLRCAASGSTSPNAMGWYRQAPGKERELVAAIWSGGTYYADSVKGRFTISRDNAKNTVYLQMNSLKPEDTAVYYCAVTGVYRGFRYGYWGQGTQVTVSS”, “low polyreactivity”.
For the sequence “QVQLVESGGGLVQAGGSLRLRCAASGTTFRLYAMGWYRQAPGKERELVAAISWIGGRTYYADSVKGRFTISRDNAKNTVYLQMNSLKPEDTAVYYCAATCAYRVARGYDYWGQGTQVTVSS”, the “polyreactivity (PSR sort gate)” value is recorded as “high polyreactivity”.
Turning to “QVQLVESGGGLVQAGGSLRLRCAATGRTFGWYAMGWYRQAPGKEREFVATITRSGGRTYYADSVKGRFTISRDNAKNTVYFQMNSLKPEDTAVYYCAADTNRYRYSYDYWGQGTQVTVSS”, the “polyreactivity (PSR sort gate)” value is “high polyreactivity”.
For “QVQLVESGGGLVQAGGSLRLRCAAYGSIFDKNSMGWYRQAPGKERELVAAITRSGRSTYYADSVKGRFTISRDNAKNTVYLQMNSLKPEDTALYYCAADVWPRWGLYYWGQGTQVTVTS”, the “polyreactivity (PSR sort gate)” value is on record as “high polyreactivity”.
Consider “QVQLVESGGGLVQAGGSLRLRCASSGITFTLNAMGWYRQAPGKERELVAAISGSGGRTYYADSVKGRFTISRDNAKNTVYLQMNSLKPEDTAVYYCAAAVLDRYTRYIWYIYDYWGQGTQVTVSS”, for which the “polyreactivity (PSR sort gate)” value is “high polyreactivity”.
Regarding “QVQLVESGGGLVQAGGSLRLRCASSGRIFFGYAMGWYRQAPGKERELVASISRGGSTNYADSVKGRFTISRDNAKNTVYLQMHSLKPEDTAVYYCAASRYLQRYGMYYWGQGTQVTVSS”, the “polyreactivity (PSR sort gate)” value is reported as “high polyreactivity”.
With “QVQLVESGGGLVQAGGSLRLRCASSGRTFQYYAMGWYRQAPGKEMELVAAISWSGGSTYYADSVKGRFTISRDNAKNTVYLQMNSLKPEDTAVYYCAAVVGRNGTRSYGYWGQGTQVTVSS”, the “polyreactivity (PSR sort gate)” value is “high polyreactivity”.
For the sequence “QVQLVESGGGLVQAGGSLRLRCGASGSTFGIYAMGWYRQAPGKERELVAAITLRTDSTYYADSVKGRFTISRDNAKNTVYLQMNSLKPEDTAVYYCARRYRYGYDYWGQGTQVSVSS”, the “polyreactivity (PSR sort gate)” value is listed as “low polyreactivity”.
Turning to “QVQLVESGGGLVQAGGSLRLRCPASGRIIGSYTMGSYRQAPGKERELVAAISFSGARTRYADSVKGRFTISRDNAKNTVYFQMNSLKAEDTAVYYCAARFTGGKYDYWGLGTQVTVSS”, the “polyreactivity (PSR sort gate)” value is recorded as “high polyreactivity”.

These data come from the nanobody polyreactivity screen of Harvey et al. (2022).
